Laboratory results reported in patent publication EP2402371A1.
Numbering of substitutions follows the chain as printed.

B1: humanized anti-GPVI Fab VL1/VH1 (Fab, V domains shown)
VH: QVQLQESGPGLVAPSQSLSITCTVSGFSLTGYGVNWVRQPPSRGLEWLGMIWGDGSTDYQSTLKSRLSISKDTSKSQVFLKMNSLTTDDTARYYCARDLPMDYWGQGTSVTVSS
VL: DIQMTQSPSSLSASVGGRVTITCKASQDINKYIAWYQHKPGKGPSLLIHYTSTLQPGVPSRFSGSGSGRDYSFSISNLQPEDIATYYCLQYANLLTFGGGTKLEIKR
B2: humanized anti-GPVI Fab VL1/VH4 (Fab, V domains shown)
VH: B1 VH with G31Y, T73N
VL: B1 VL
B3: humanized anti-GPVI Fab VL3/VH4 (Fab, V domains shown)
VH: B1 VH with G31Y, T73N
VL: B1 VL with N93L
B4: humanized anti-GPVI Fab VL1/VH2 (Fab, V domains shown)
VH: B1 VH with T73N
VL: B1 VL
B5: humanized anti-GPVI Fab VL1/VH3 (Fab, V domains shown)
VH: B1 VH with Q1E, Q5L, Q16G, S42G, R43K, T73N, T86R, Q106L
VL: B1 VL
B6: humanized anti-GPVI Fab VL1/VH5 (Fab, V domains shown)
VH: B1 VH with T73N, Y103E
VL: B1 VL
B7: humanized anti-GPVI Fab VL3/VH2 (Fab, V domains shown)
VH: B1 VH with T73N
VL: B1 VL with N93L
B8: humanized anti-GPVI Fab VL2/VH2 (Fab, V domains shown)
VH: B1 VH with T73N
VL: B1 VL with N93H

The binders below were run against extracellular domain of human GPVI (human) (UniProt Q9HCN6) (assay: SPR (Biacore 3000), human GPVI immobilised by amine coupling, Fab as analyte).

| Kd [nM] | koff [s⁻¹] | kon [M⁻¹ s⁻¹] | Binder |
| --- | --- | --- | --- |
| 0.4 | 4e-05 | 111000 | B1 |
| 0.2 | 2e-05 | 124000 | B2 |
| 0.3 | 4e-05 | 151000 | B3 |
| 0.2 | 3e-05 | 113000 | B4 |
| 0.1 | 2e-05 | 148000 | B5 |
| 0.4 | 3e-05 | 81000 | B6 |
| 0.2 | 3e-05 | 132000 | B7 |
| 0.3 | 3e-05 | 108000 | B8 |
